Values joined by “and” are separate entries in the source; they are usually repeats but may differ in a detail not shown here. Identical values can stand only once.
Target: IVIg (Octagam)

B1: pCART229 (protein)
chain: MDDYQRNATEAYAKEVPHQITSVWTKGVTPPEQFTQGEDVIHAPYLAHQGWYDITKAFDGKDNLLCGAATAGNMLHWWFDQNKTEIEAYLSKHPEKQKIIFRNQELFDLKAAIDTKDSQTNSQLFNYFRDKAFPNLSARQLGVMPDLVLDMFINGYYLNVFKTQSTDVNRPYQDKDKRGGIFDAVFTRGNQTTLLTARHDLKNKGLNDISTIIKQELTEGRALALSHTYANVSISHVINLWGADFNAEGNLEAIYVTDSDANASIGMKKYFVGINAHGHVAISAKKIEGENIGAQVLGLFTLSSGKDIWQKLSGGGHHHHHH
Conc. of enzyme for 1st IgG heavy chain cleavage (IgG to scIgG), SDS-PAGE: 1900 ng/mL | Conc. of enzyme for 2nd IgG heavy chain cleavage (scIgG to F(ab')2), SDS-PAGE: 7500 ng/mL

B2: pCART206 (protein)
chain: MDDYQRNATEAYAKEVPHQITSVWTKGVTPPEQFTQGEDVIHAPYLAHQGWYDITKAFDGKDNLLCGAATAGNMLHWWFDQNKTEIEAYLSKHPEKQKIIINNQELFDLKAAIDTKDSQTNSQLFNYFRDKAFPNLSARQLGVMPDLVLDMFINGYYLNVFKTQSTDVNRPYQDKDKRGGIFDAVFTRGDQTTLLTARHDLKNKGLNDISTIIKQELTEGRALALSHTYANVSISHVINLWGADFNAEGNLEAIYVTDSDANASIGMKKYFVGINAHGHVAISAKKIEGENIGAQVLGLFTLSSGKDIWQKLSGGGHHHHHH
IVIg cleavage in the presence of anti-IdeS neutralizing antibodies, SDS-PAGE titration: A similar result was obtained for pCART206 (data not shown)

B3: pCART210 (protein)
chain: MDDYQRNATEAYAKEVPHQITSVWTKGVTPPEQFTQGEDVIHAPYLANQGWYDITKAFDGKDNLLCGAATAGNMLHWWFDQNKTEIEAYLSKHPEKQKIIFRNQELFDLKEAIRTKDSQTNSQLFEYFRDKAFPYLSARQLGVMPDLVLDMFINGYYLNVFKTQSTDVKRPYQDKDKRGGIFDAVFTRGNQTTLLTARHDLKNKGLNDISTIIKEELTKGRALALSHTYANVSISHVINLWGADFNAEGNLEAIYVTDSDANASIGMKKYFVGINKHGHVAISAKKIEGENIGAQVLGLFTLSSGKDIWQKLNGGGHHHHHH
IVIg cleavage of the 1st heavy chain, SDS-PAGE titration: pCART207, pCART208 and pCART210 all show increased efficacy compared to IdeS (BX1001865) in the cleavage of the 1st IgG heavy chain (lane 6)

B4: pCART208 (protein)
chain: MDDYQRNATEAYAKEVPHQITSVWTKGVTPPEQFTQGEDVIHAPYLAHQGWYDITKAFDGKDNLLCGAATAGNMLHWWFDQNKTEIEAYLSKHPEKQKIIIRNQELFDLKAAIDTKDSQTNSQLFNYFRDKAFPNLSARQLGVMPDLVLDMFINGYYLNVFKTQSTDVNRPYQDKDKRGGIFDAVFTRGDQTTLLTARHDLKNKGLNDISTIIKQELTEGRALALSHTYANVSISHVINLWGADFNAEGNLEAIYVTDSDANASIGMKKYFVGINAHGHVAISAKKIEGENIGAQVLGLFTLSSGKDIWQKLSGGGHHHHHH
IVIg cleavage of the 1st heavy chain, SDS-PAGE titration: pCART207, pCART208 and pCART210 all show increased efficacy compared to IdeS (BX1001865) in the cleavage of the 1st IgG heavy chain (lane 6) | IVIg cleavage of the 1st heavy chain, SDS-PAGE titration: fold efficacy over IdeS: In the case of pCART208 this is approximately a 4 fold increase in cleavage efficacy of the 1st heavy chain | IVIg cleavage of the 2nd heavy chain, SDS-PAGE titration: enzyme concentration giving a dominating F(ab')2 band: pCART208 shows an improved cleavage efficacy, resulting in a dominating F(ab')2 band (arrow 3) at 1.9 ng/ml (lane 5), whereas IdeS (BX1001865) has only generated scIgG (arrow 2) at the same concentration

B5: pCART203 (protein)
chain: MDDYQRNATEAYAKEVPHQITSVWTKGVTPPEQFTQGEDVIHAPYLAHQGWYDITKAFDGKDNLLCGAATAGNMLHWWFDQNKTEIEAYLSKHPEKQKIIFNNQELFDLKAAIDTKDSQTNSQLFNYFRDKAFPNLSARQLGVMPDLVLDMFINGYYLNVFKTQSTDVNRPYQDKDKRGGIFDAVFTRGDQTTLLTARHDLKNKGLNDISTIIKQELTEGRALALSHTYANVSISHVINLWGADFNAEGNLEAIYVTDSDANASIGMKKYFVGINAHGHVAISAKKIEGENIGAQVLGLFTLSSGKDIWQKLSGGGHHHHHH
IVIg cleavage, SDS-PAGE titration: pCART203 shows a capacity comparable to IdeS (BX1001865 and pCART124) at the 2nd cleavage site (lane 2, 3 and 4) and a higher cleavage efficacy than both IdeS and IdeZ (pCART144) at the 1st cleavage site (lane 7) | IVIg cleavage, SDS-PAGE titration: enzyme concentration at which cleavage is seen: Enzyme pCART203 demonstrates IgG cleavage at 0.5 ng/ml (lane 7) | IVIg cleavage, SDS-PAGE titration: enzyme concentration giving an intense scIgG band: Concentrations of 0.94 ng/ml (lane 6) for pCART202, pCART203 and pCART204 result in an intense band of scIgG (arrow 2), with most of the IgG single cleaved | IVIg cleavage, SDS-PAGE titration: enzyme concentration giving mainly scIgG: has generated mainly scIgG (arrow 2) at about 0.9 ng/ml (lane 6) | IVIg cleavage, SDS-PAGE titration: fold efficacy over IdeS: This corresponds to a 2 fold increased efficacy compared to IdeS

B6: IdeS BX1001865 (protein)
chain: DSFSANQEIRYSEVTPYHVTSVWTKGVTPPANFTQGEDVFHAPYVANQGWYDITKTFNGKDDLLCGAATAGNMLHWWFDQNKDQIKRYLEEHPEKQKINFNGEQMFDVKEAIDTKNHQLDSKLFEYFKEKAFPYLSTKHLGVFPDHVIDMFINGYRLSLTNHGPTPVKEGSKDPRGGIFDAVFTRGDQSKLLTSRHDFKEKNLKEISDLIKKELTEGKALGLSHTYANVRINHVINLWGADFDSNGNLKAIYVTDSDSNASIGMKKYFVGVNSAGKVAISAKEIKEDNIGAQVLGLFTLSTGQDSWNQTN
Conc. of enzyme for 1st IgG heavy chain cleavage (IgG to scIgG), SDS-PAGE: 1900 ng/mL | Conc. of enzyme for 2nd IgG heavy chain cleavage (scIgG to F(ab')2), SDS-PAGE: 6000 ng/mL and 7500 ng/mL | IVIg cleavage, SDS-PAGE titration: enzyme concentration at which cleavage starts: IdeS, which starts the cleavage at 0.9 ng/ml (lane 6) and has a dominating scIgG band at 1.9 ng/ml (lane 5) | IVIg cleavage, SDS-PAGE titration: enzyme concentration giving a dominating scIgG band: IdeS, which starts the cleavage at 0.9 ng/ml (lane 6) and has a dominating scIgG band at 1.9 ng/ml (lane 5) | IVIg cleavage, SDS-PAGE titration: enzyme concentration giving mainly scIgG: IdeS (BX1001865) has generated mainly scIgG (arrow 2) at a concentration of 1.9 ng/ml (lane 5) | IVIg cleavage, SDS-PAGE titration: share of scIgG at 0.94 ng/ml enzyme: the same concentration of IdeS results in less than 50% scIgG (lane 6)

B7: pCART124 (IdeS with N terminal methionine and histidine tag) (protein)
chain: MDSFSANQEIRYSEVTPYHVTSVWTKGVTPPANFTQGEDVFHAPYVANQGWYDITKTFNGKDDLLCGAATAGNMLHWWFDQNKDQIKRYLEEHPEKQKINFNGEQMFDVKEAIDTKNHQLDSKLFEYFKEKAFPYLSTKHLGVFPDHVIDMFINGYRLSLTNHGPTPVKEGSKDPRGGIFDAVFTRGDQSKLLTSRHDFKEKNLKEISDLIKKELTEGKALGLSHTYANVRINHVINLWGADFDSNGNLKAIYVTDSDSNASIGMKKYFVGVNSAGKVAISAKEIKEDNIGAQVLGLFTLSTGQDSWNQTNGGGHHHHHH
Conc. of enzyme for 1st IgG heavy chain cleavage (IgG to scIgG), SDS-PAGE: 1900 ng/mL | Conc. of enzyme for 2nd IgG heavy chain cleavage (scIgG to F(ab')2), SDS-PAGE: 6000 ng/mL and 7500 ng/mL | IVIg cleavage, SDS-PAGE titration: enzyme concentration at which cleavage starts: IdeS, which starts the cleavage at 0.9 ng/ml (lane 6) and has a dominating scIgG band at 1.9 ng/ml (lane 5) | IVIg cleavage, SDS-PAGE titration: enzyme concentration giving a dominating scIgG band: IdeS, which starts the cleavage at 0.9 ng/ml (lane 6) and has a dominating scIgG band at 1.9 ng/ml (lane 5) | IVIg cleavage, SDS-PAGE titration: share of scIgG at 0.94 ng/ml enzyme: the same concentration of IdeS results in less than 50% scIgG (lane 6)

B8: pCART144 (IdeZ with N terminal methionine and histidine tag) (protein)
chain: MDDYQRNATEAYAKEVPHQITSVWTKGVTPLTPEQFRYNNEDVIHAPYLAHQGWYDITKAFDGKDNLLCGAATAGNMLHWWFDQNKTEIEAYLSKHPEKQKIIFNNQELFDLKAAIDTKDSQTNSQLFNYFRDKAFPNLSARQLGVMPDLVLDMFINGYYLNVFKTQSTDVNRPYQDKDKRGGIFDAVFTRGDQTTLLTARHDLKNKGLNDISTIIKQELTEGRALALSHTYANVSISHVINLWGADFNAEGNLEAIYVTDSDANASIGMKKYFVGINAHGHVAISAKKIEGENIGAQVLGLFTLSSGKDIWQKLSGGGHHHHHH
IVIg cleavage of the 2nd heavy chain, SDS-PAGE titration: pCART144 (IdeZ) is worse in cleavage of the 2nd heavy chain compared to IdeS (BX1001865 and pCART124) | IVIg cleavage, SDS-PAGE titration: shows more effective cleavage at the 1st IgG heavy chain (lane 6) compared to IdeS (BX1001865 and pCART124)

B9: pCART202 (protein)
chain: MDDYQRNATEAYAKEVPHQITSVWTKGVTPLTPEQFTQGEDVIHAPYLAHQGWYDITKAFDGKDNLLCGAATAGNMLHWWFDQNKTEIEAYLSKHPEKQKIIFNNQELFDLKAAIDTKDSQTNSQLFNYFRDKAFPNLSARQLGVMPDLVLDMFINGYYLNVFKTQSTDVNRPYQDKDKRGGIFDAVFTRGDQTTLLTARHDLKNKGLNDISTIIKQELTEGRALALSHTYANVSISHVINLWGADFNAEGNLEAIYVTDSDANASIGMKKYFVGINAHGHVAISAKKIEGENIGAQVLGLFTLSSGKDIWQKLSGGGHHHHHH
IVIg cleavage, SDS-PAGE titration: enzyme concentration giving an intense scIgG band: Concentrations of 0.94 ng/ml (lane 6) for pCART202, pCART203 and pCART204 result in an intense band of scIgG (arrow 2), with most of the IgG single cleaved

B10: pCART204 (protein)
chain: MDDYQRNATEAYAKEVPHQITSVWTKGVTPPEQFRYNNEDVIHAPYLAHQGWYDITKAFDGKDNLLCGAATAGNMLHWWFDQNKTEIEAYLSKHPEKQKIIFNNQELFDLKAAIDTKDSQTNSQLFNYFRDKAFPNLSARQLGVMPDLVLDMFINGYYLNVFKTQSTDVNRPYQDKDKRGGIFDAVFTRGDQTTLLTARHDLKNKGLNDISTIIKQELTEGRALALSHTYANVSISHVINLWGADFNAEGNLEAIYVTDSDANASIGMKKYFVGINAHGHVAISAKKIEGENIGAQVLGLFTLSSGKDIWQKLSGGGHHHHHH
IVIg cleavage, SDS-PAGE titration: enzyme concentration giving an intense scIgG band: Concentrations of 0.94 ng/ml (lane 6) for pCART202, pCART203 and pCART204 result in an intense band of scIgG (arrow 2), with most of the IgG single cleaved
